Test results published in patent publication US20090087428A1.

Biological target: GST-huFcγRIIA(R131) (human) [GST: P08515]
Assay: ELISA, plate-coated GST fusion (FIG. 8)

EC50: 2.5 µg/mL
B1: Antibody 5A6.2.1 (anti-human FcγRIIB monoclonal antibody) (antibody)
VH: EVKLEESGGGLVQPGGSMKLSCVASGFTFSDAWMDWVRQSPERGLEWVAEIRSKPNNHATYYAESVKGRFTISRDDSKSSVYLQMTSLRPEDTGIYYCTHFDYWGQGTTLTVSSAKTTGPSVFPLAPSSKSTSGGTAALGCLVKDYFPEPVTVSWNSGALTSGVHTFPAVLQSSGLYSLSSVVTVPSSSLGTQTYICNVNHKPSNTKVDKKVEPKSCDKTHT
VL: DIQMTQSPSSLSASLGERVSLTCRASQEISGYLSWFQQKPDGTIKRLIYAASALDSGVPKRFSGSWSGSDYSLTISSLESEDFADYYCLQYVSYPLTFGAGTKLELKRTVAAPSVFIFPPSDEQLKSGTASVVCLLNNFYPREAKVQWKVDNALQSGNSQESVTEQDSKDSTYSLSSTLTLSKADYEKHKVYACEVTHQGLSSPVTKSFNRGEC
